Data as given in article PMC6856053 (Frontiers in Neuroscience, 2019).

Key:
Assay in all cases: pull-down; GST-MIT domain (bait) and myc-6His MIM (prey), 2 nmole each, on 20 ul glutathione sepharose in 1 ml PBS + 0.1% NP-40 + 1 mM DTT, overnight 4 C; Coomassie and anti-myc blot
Settings in all cases: both partners purified
[1] = target: T1, GST fused to the spastin MIT domain (residues 110-199) E112K (human, UniProt Q9UBP0 110-199, E112K)
T1 construct: spastin, residues 110-199 holding the MIT domain; patient mutation; Cloned into the BamHI-XhoI sites of pGEX-4T2; source: E. coli BL21(DE3)pLysS, purified (GST sepharose, eluted with 10 mM glutathione)
T1 sequence (looked up): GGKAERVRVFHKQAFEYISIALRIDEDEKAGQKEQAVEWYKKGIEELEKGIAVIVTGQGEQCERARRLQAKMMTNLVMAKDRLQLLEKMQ

[2] = target: T2, GST fused to the spastin MIT domain (residues 110-199) V162I (human, UniProt Q9UBP0 110-199, V162I)
T2 construct: spastin, residues 110-199 holding the MIT domain; benign polymorphism; Cloned into the BamHI-XhoI sites of pGEX-4T2; also called MIT containing the benign polymorphism V162I; source: E. coli BL21(DE3)pLysS, purified (GST sepharose, eluted with 10 mM glutathione)
T2 sequence (looked up): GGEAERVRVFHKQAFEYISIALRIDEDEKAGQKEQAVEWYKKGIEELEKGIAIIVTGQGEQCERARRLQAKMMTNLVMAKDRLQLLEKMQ

[3] = target: T3, GST fused to the spastin MIT domain (residues 110-199) N184T (human, UniProt Q9UBP0 110-199, N184T)
T3 construct: spastin, residues 110-199 holding the MIT domain; patient mutation; Cloned into the BamHI-XhoI sites of pGEX-4T2; source: E. coli BL21(DE3)pLysS, purified (GST sepharose, eluted with 10 mM glutathione)
T3 sequence (looked up): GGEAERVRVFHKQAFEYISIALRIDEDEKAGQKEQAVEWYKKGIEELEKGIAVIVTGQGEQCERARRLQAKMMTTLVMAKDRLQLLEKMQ

[4] = target: T4, GST fused to the spastin MIT domain (residues 110-199) R115C (human, UniProt Q9UBP0 110-199, R115C)
T4 construct: spastin, residues 110-199 holding the MIT domain; patient mutation (SPAST c.343C>T); Cloned into the BamHI-XhoI sites of pGEX-4T2; source: E. coli BL21(DE3)pLysS, purified (GST sepharose, eluted with 10 mM glutathione)
T4 sequence (looked up): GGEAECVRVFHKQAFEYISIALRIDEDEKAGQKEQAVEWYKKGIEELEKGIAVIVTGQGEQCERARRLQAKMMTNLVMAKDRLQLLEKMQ

[5] = target: T5, GST fused to the wild-type spastin MIT domain (residues 110-199) (human, UniProt Q9UBP0 110-199)
T5 construct: spastin, residues 110-199 holding the MIT domain; Cloned into the BamHI-XhoI sites of pGEX-4T2; also called WT; source: E. coli BL21(DE3)pLysS, purified (GST sepharose, eluted with 10 mM glutathione)
T5 sequence (looked up): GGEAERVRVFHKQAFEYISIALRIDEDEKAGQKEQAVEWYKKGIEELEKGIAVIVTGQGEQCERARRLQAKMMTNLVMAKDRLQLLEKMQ

[6] = target: T6, GST fused to the spastin MIT domain (residues 110-199) L195V (human, UniProt Q9UBP0 110-199, L195V)
T6 construct: spastin, residues 110-199 holding the MIT domain; patient mutation; Cloned into the BamHI-XhoI sites of pGEX-4T2; source: E. coli BL21(DE3)pLysS, purified (GST sepharose, eluted with 10 mM glutathione)
T6 sequence (looked up): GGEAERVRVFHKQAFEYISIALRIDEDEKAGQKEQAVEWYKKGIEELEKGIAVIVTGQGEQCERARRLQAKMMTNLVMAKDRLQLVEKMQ

Measured: binding result

B1: single MIM of CHMP1B, residues 174-199, myc- and 6His-tagged (domain or fragment, UniProt Q7LBR1 174-199, looked up)
chain: GSVGTSVASAEQDELSQRLARLRDQV
notes: CHMP1B, residues 174-199 holding the single MIM; Cloned into the BamHI-NotI sites of pGEX-6P-1; also called CHMP1B MIM; CHMP1B (amino acids 174-199); source: E. coli BL21(DE3)pLysS, purified (GST sepharose, GST removed with Prescission protease)
binds: all assays above
